Data published in patent US20160039947A1 (Eli Lilly, published 2016).
Substitutions are numbered along the chain they refer to.

B1: MAControl λκ (anti-cMET/anti-Axl IgG BsAb without Fab redesigns) (bispecific antibody)
heavy 1: EVQLVESGGGLVQPGGSLRLSCAASGYTFTSYWLHWVRQAPGKGLEWVGMIDPSNSDTRFNPNFKDRFTISADTSKNTAYLQMNSLRAEDTAVYYCATYRSYVTPLDYWGQGTLVTVSSASTKGPSVFPLAPSSKSTSGGTAALGCLVKDYFPEPVTVSWNSGALTSGVHTFPAVLQSSGLYSLSSVVTVPSSSLGTQTYICNVNHKPSNTKVDKKVEPKSCDKTHTCPPCPAPELLGGPSVFLFPPKPKDTLMISRTPEVTCVVVDVSHEDPEVKFNWYVDGVEVHNAKTKPREEQYQSTYRVVSVLTVLHQDWLNGKEYKCKVSNKALPAPIEKTISKAKGQPREPQVYTLPPSRDELTKNQVSLTCLVKGFYPSDIAVEWESNGQPENNYDTTPPVLDSDGSFFLYSDLTVDKSRWQQGNVFSCSVMHEALHNHYTQKSLSLSPG
light 1: DIQMTQSPSSLSASVGDRVTITCKSSQSLLYTSSQKNYLAWYQQKPGKAPKLLIYWASTRESGVPSRFSGSGSGTDFTLTISSLQPEDFATYYCQQYYAYPWTFGQGTKVEIKGQPKAAPSVTLFPPSSEELQANKATLVCLISDFYPGAVTVAWKADSSPVKAGVETTTPSKQSNNKYAASSYLSLTPEQWKSHRSYSCQVTHEGSTVEKTVAPTEC
heavy 2: EVQLVESGGGLVQPGGSLRLSCAASGFSLSGSWIHWVRQAPGKGLEWVGWINPYRGYAYYADSVKGRFTISADTSKNTAYLQMNSLRAEDTAVYYCAREYSGWGGSSVGYAMDYWGQGTLVTVSSASTKGPSVFPLAPSSKSTSGGTAALGCLVKDYFPEPVTVSWNSGALTSGVHTFPAVLQSSGLYSLSSVVTVPSSSLGTQTYICNVNHKPSNTKVDKKVEPKSCDKTHTCPPCPAPELLGGPSVFLFPPKPKDTLMISRTPEVTCVVVDVSHEDPEVKFNWYVDGVEVHNAKTKPREEQYQSTYRVVSVLTVLHQDWLNGKEYKCKVSNKALPAPIEKTISKAKGQPREPQVYTLPPSRKELTKNQVSLTCLVKGFYPSDIAVEWESNGQPENNYKTTPPVLKSDGSFFLYSKLTVDKSRWQQGNVFSCSVMHEALHNHYTQKSLSLSPG
light 2: DIQMTQSPSSLSASVGDRVTITCRASQDVSTAVAWYQQKPGKAPKLLIYSASFLYSGVPSRFSGSGSGTDFTLTISSLQPEDFATYYCQQSYTTPPTFGQGTKVEIKRTVAAPSVFIFPPSDEQLKSGTASVVCLLNNFYPREAKVQWKVDNALQSGNSQESVTEQDSKDSTYSLSSTLTLSKADYEKHKVYACEVTHQGLSSPVTKSFNRGEC
B2: MADesign κλ (anti-cMET/anti-Axl IgG BsAb with Fab redesigns) (bispecific antibody)
heavy 1: B1 heavy 1 with Q39K, N63E, H170A, F172G
light 1: RIQMTQSPSSLSASVGDRVTITCKSSQSLLYTSSQKNYLAWYQDKPGKAPKLLIYWASTRESGVPSRFSGSGSGTDFTLTISSLQPEDFATYYCQQYYAYPWTFGQGTKVEIKRTVAAPSVFIFPPSDEQLKSGTASVVCYLNNFYPREAKVQWKVDNALQSGNSQESVTEQDSKDSTYSLWSTLTLSKADYEKHKVYACEVTHQGLSSPVTKSFNRGEC
heavy 2: B1 heavy 2 with Q39Y
light 2: DIQMTQSPSSLSASVGDRVTITCRASQDVSTAVAWYQRKPGKAPKLLIYSASFLYSGVPSRFSGSGSGTDFTLTISSLQPEDFATYYCQQSYTTPPTFGQGTKVEIKGQPKAAPSVTLFPPSSEELQANKATLVCLISDFYPGAVTVAWKADSSPVKAGVETTTPSKQSNNKYAASSYLSLTPEQWKSHRSYSCQVTHEGSTVEKTVAPTEC
notes: also called MA Designs
B3: MADesign λκ (anti-cMET/anti-Axl IgG BsAb with Fab redesigns) (bispecific antibody)
heavy 1: B1 heavy 1 with Q39K, N63E, H170A, F172G
light 1: B1 light 1 with D1R, Q44D, L142Y, S182W
heavy 2: B1 heavy 2 with Q39Y
light 2: B1 light 2 with Q38R
notes: also called MA Designs
B4: HEControl λλ (anti-HER-2/anti-EGFR IgG BsAb without Fab redesigns) (bispecific antibody)
heavy 1: EVQLVESGGGLVQPGGSLRLSCAASGFTFTDYTMDWVRQAPGKGLEWVADVNPNSGGSIYNQRFKGRFTLSVDRSKNTLYLQMNSLRAEDTAVYYCARNLGPSFYFDYWGQGTLVTVSSASTKGPSVFPLAPSSKSTSGGTAALGCLVKDYFPEPVTVSWNSGALTSGVHTFPAVLQSSGLYSLSSVVTVPSSSLGTQTYICNVNHKPSNTKVDKKVEPKSCDKTHTCPPCPAPELLGGPSVFLFPPKPKDTLMISRTPEVTCVVVDVSHEDPEVKFNWYVDGVEVHNAKTKPREEQYQSTYRVVSVLTVLHQDWLNGKEYKCKVSNKALPAPIEKTISKAKGQPREPQVYTLPPSRDELTKNQVSLTCLVKGFYPSDIAVEWESNGQPENNYDTTPPVLDSDGSFFLYSDLTVDKSRWQQGNVFSCSVMHEALHNHYTQKSLSLSPG
light 1: DIQMTQSPSSLSASVGDRVTITCKASQDVSIGVAWYQQKPGKAPKLLIYSASYRYTGVPSRFSGSGSGTDFTLTISSLQPEDFATYYCQQYYIYPYTFGQGTKVEIKGQPKAAPSVTLFPPSSEELQANKATLVCLISDFYPGAVTVAWKADSSPVKAGVETTTPSKQSNNKYAASSYLSLTPEQWKSHRSYSCQVTHEGSTVEKTVAPTEC
heavy 2: QVQLVQSGAEVKKPGASVKVSCKASGYTFTSHWMHWVRQAPGQGLEWIGEFNPSNGRTNYNEKFKSKATMTVDTSTNTAYMELSSLRSEDTAVYYCASRDYDYDGRYFDYWGQGTLVTVSSASTKGPSVFPLAPSSKSTSGGTAALGCLVKDYFPEPVTVSWNSGALTSGVHTFPAVLQSSGLYSLSSVVTVPSSSLGTQTYICNVNHKPSNTKVDKKVEPKSCDKTHTCPPCPAPELLGGPSVFLFPPKPKDTLMISRTPEVTCVVVDVSHEDPEVKFNWYVDGVEVHNAKTKPREEQYQSTYRVVSVLTVLHQDWLNGKEYKCKVSNKALPAPIEKTISKAKGQPREPQVYTLPPSRKELTKNQVSLTCLVKGFYPSDIAVEWESNGQPENNYKTTPPVLKSDGSFFLYSKLTVDKSRWQQGNVFSCSVMHEALHNHYTQKSLSLSPG
light 2: DIQMTQSPSSLSASVGDRVTITCSASSSVTYMYWYQQKPGKAPKLLIYDTSNLASGVPSRFSGSGSGTDYTFTISSLQPEDIATYYCQQWSSHIFTFGQGTKVEIKGQPKAAPSVTLFPPSSEELQANKATLVCLISDFYPGAVTVAWKADSSPVKAGVETTTPSKQSNNKYAASSYLSLTPEQWKSHRSYSCQVTHEGSTVEKTVAPTEC
notes: The preparation held 65% correctly paired heterotetramer by LC/MS
B5: MAControl λλ (anti-cMET/anti-Axl IgG BsAb without Fab redesigns) (bispecific antibody)
heavy 1: B1 heavy 1
light 1: B1 light 1
heavy 2: B1 heavy 2
light 2: B2 light 2 with R38Q
B6: HEControl λκ (anti-HER-2/anti-EGFR IgG BsAb without Fab redesigns) (bispecific antibody)
heavy 1: B4 heavy 1
light 1: B4 light 1
heavy 2: B4 heavy 2
light 2: DIQMTQSPSSLSASVGDRVTITCSASSSVTYMYWYQQKPGKAPKLLIYDTSNLASGVPSRFSGSGSGTDYTFTISSLQPEDIATYYCQQWSSHIFTFGQGTKVEIKRTVAAPSVFIFPPSDEQLKSGTASVVCLLNNFYPREAKVQWKVDNALQSGNSQESVTEQDSKDSTYSLSSTLTLSKADYEKHKVYACEVTHQGLSSPVTKSFNRGEC
B7: MADesign λλ (anti-cMET/anti-Axl IgG BsAb with Fab redesigns) (bispecific antibody)
heavy 1: B1 heavy 1 with Q39K, N63E, H170A, F172G
light 1: B1 light 1 with D1R, Q44D, L142Y, S182W
heavy 2: B1 heavy 2 with Q39Y
light 2: B2 light 2
notes: also called MA Designs

Legend:
hHGFR(cMet)-Fc = molecular target: T1, hHGFR(cMet)-Fc (human, UniProt P08581 25-932); assay: sandwich ELISA: hHGFR(cMet)-Fc coated, BsAb, hAxl-Fc-biotin detection
T1 construct: Coated in the sandwich ELISA; second injection in SPR; not shown: Fc part of the bought fusion protein
T1 sequence (P08581 25-932): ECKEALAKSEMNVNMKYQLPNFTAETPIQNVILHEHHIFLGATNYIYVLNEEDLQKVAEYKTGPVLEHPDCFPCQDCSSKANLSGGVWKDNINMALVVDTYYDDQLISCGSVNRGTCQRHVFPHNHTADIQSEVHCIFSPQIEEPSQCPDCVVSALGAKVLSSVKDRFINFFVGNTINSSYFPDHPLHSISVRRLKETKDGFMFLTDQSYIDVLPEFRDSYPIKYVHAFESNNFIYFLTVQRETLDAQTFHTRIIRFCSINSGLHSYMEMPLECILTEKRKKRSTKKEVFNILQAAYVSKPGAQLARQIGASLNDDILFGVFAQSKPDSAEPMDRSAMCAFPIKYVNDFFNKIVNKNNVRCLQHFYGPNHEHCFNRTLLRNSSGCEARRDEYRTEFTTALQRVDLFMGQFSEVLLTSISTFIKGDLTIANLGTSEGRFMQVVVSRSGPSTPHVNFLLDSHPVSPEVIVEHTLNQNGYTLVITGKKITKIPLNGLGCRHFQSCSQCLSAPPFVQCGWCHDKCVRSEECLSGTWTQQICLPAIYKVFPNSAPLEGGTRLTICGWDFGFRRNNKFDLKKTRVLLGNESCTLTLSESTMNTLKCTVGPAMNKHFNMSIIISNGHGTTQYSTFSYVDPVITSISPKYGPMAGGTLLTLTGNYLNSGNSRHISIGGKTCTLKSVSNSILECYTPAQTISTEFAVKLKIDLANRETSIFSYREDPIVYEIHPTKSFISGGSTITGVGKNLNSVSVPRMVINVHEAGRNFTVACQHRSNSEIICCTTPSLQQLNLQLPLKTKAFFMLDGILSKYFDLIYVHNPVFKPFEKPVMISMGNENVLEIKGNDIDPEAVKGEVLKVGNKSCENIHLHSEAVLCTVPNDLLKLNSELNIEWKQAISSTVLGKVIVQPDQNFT
Procedure: (§1) Two sandwich ELISAs are developed, one for detecting anti-HER-2/anti-EGFR BsAb activity and one for detecting anti-cMET/anti-Axl BsAb activity. For both ELISAs, clear 96-well round bottom high binding Immulon microtiter plates (Greiner bio-one, cat#650061) are coated overnight at 2-8° C. with 50 μL/well 1 μg/mL hHER-2-Fc or 1 μg/mL hHGFR(cMet)-Fc (both from R&D systems) in a 50 mM Na₂CO₃ pH 8 buffer. The plates are washed 4 times with PB ST and blocked with 100 μL/well casein buffer (Pierce) for 1 hr at 37° C. The plates are then washed 4 times with PBST and the parental IgG controls or BsAb IgG test articles are added at 50 μL/well and 5 μg/mL and serially diluted 1:3 down the plate. The test articles are incubated on the plate for 1 hr at 37° C. The plates are then washed 4 times with PBST and 50 μL/well 0.2 μg/mL hEGFR-Fc-biotin or hAxl-Fc-biotin (both from R&D systems) is added for 1 hr at 37° C. The plates are then washed 4 times with PBST followed by the addition of a 50 μL/well streptavidin-HRP (Jackson Labs) diluted 1:2000 in PBST. The streptavidin-HRP is incubated in each well for 1 hr at 37° C. The plates are then washed 4 times with PBST and 100 μL/well 1-component TMB substrate is added (KPL laboratories). After approximately 10 minutes, […] 1% H₃PO₄ (in H₂O) is added to each plate to quench the reaction. Absorbance (450 nm) of every well in the plates is read using a SpectraMax UV plate reader (Molecular Devices). Biotin-labeling of the hEGFR-Fc and hAxl-Fc proteins is performed using EZ-Link Sulfo-NHS-LC-Biotin (Thermo Scientific) according to the manufacturer's protocol.

hEGFR-Fc = molecular target: T2, hEGFR-Fc (human, UniProt P00533 25-645); assay: sandwich ELISA: hHER-2-Fc coated, BsAb, hEGFR-Fc-biotin detection
T2 construct: Biotin-labelled (EZ-Link Sulfo-NHS-LC-Biotin) as detection reagent in the ELISA; unlabelled second injection in SPR; also called hEGFR-Fc-biotin; not shown: Fc part of the bought fusion protein
Procedure: as §1

| Binder | binding result (hHGFR(cMet)-Fc) | binding result (hEGFR-Fc) |
| --- | --- | --- |
| B1 | binds | – |
| B2 | binds | – |
| B3 | binds | – |
| B4 | – | binds |
| B5 | binds | – |
| B6 | – | binds |
| B7 | binds | – |
